# Source: paper PMC2943598 (Nucleic Acids Research, 2010)
# T1: Alexa fluor 488-labeled M. thermautotrophicus ND-GluRS (Methanothermobacter thermautotrophicus), O26157
# T1 chain: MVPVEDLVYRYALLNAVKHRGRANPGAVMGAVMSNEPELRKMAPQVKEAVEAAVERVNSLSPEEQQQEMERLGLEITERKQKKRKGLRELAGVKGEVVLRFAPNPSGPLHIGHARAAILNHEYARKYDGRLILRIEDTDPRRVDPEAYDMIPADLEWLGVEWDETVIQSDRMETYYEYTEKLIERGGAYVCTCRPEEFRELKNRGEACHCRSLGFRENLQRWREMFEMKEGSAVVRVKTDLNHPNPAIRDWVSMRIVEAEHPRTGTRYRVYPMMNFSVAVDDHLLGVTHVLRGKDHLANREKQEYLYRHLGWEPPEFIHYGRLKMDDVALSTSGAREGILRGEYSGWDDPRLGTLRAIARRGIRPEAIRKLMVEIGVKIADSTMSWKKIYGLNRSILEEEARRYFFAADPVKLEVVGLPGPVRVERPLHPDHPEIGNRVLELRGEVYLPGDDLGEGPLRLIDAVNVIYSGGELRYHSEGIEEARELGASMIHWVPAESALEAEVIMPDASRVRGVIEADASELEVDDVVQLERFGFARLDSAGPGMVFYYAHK
# T2: Methanothermobacter thermautotrophicus non-discriminating glutamyl-tRNA synthetase (Methanothermobacter thermautotrophicus), O26157
# T2 chain: T1 chain
# T3: Methanothermobacter thermautotrophicus glutamyl-tRNA(Gln) amidotransferase GatDE, His6-tagged (Methanothermobacter thermautotrophicus), O26802
# T3 chain 1: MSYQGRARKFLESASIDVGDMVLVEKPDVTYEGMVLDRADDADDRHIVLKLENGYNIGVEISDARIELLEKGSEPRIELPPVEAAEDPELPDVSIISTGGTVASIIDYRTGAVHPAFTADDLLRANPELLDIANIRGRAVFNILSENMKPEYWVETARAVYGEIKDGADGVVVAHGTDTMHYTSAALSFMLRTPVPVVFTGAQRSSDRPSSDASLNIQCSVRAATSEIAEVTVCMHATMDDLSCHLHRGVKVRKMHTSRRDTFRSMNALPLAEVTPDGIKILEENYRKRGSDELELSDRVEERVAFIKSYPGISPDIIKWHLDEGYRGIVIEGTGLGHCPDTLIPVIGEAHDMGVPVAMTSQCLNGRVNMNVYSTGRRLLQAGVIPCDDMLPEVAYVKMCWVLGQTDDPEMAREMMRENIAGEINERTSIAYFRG
# T3 chain 2: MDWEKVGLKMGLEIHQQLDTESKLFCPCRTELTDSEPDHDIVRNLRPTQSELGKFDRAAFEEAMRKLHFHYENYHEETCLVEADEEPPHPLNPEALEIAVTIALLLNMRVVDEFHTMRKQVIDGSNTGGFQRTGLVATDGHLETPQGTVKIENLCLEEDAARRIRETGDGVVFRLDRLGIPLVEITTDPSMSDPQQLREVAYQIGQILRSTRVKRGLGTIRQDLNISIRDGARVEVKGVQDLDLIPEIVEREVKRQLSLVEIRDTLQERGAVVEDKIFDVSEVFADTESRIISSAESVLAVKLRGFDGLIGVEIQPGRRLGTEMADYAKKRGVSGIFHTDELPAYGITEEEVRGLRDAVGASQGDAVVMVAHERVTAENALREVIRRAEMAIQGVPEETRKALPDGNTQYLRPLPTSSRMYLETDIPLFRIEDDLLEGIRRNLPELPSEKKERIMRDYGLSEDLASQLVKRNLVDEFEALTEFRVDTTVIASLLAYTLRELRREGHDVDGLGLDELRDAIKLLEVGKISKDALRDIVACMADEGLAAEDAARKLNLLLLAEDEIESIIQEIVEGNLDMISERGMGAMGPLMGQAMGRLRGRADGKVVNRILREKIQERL
# B1: Methanothermobacter thermautotrophicus glutamyl-tRNA(Gln) amidotransferase GatDE, His6-tagged, O26802 1-435; O26803 1-619 (complex)
# chain 1: T3 chain 1
# chain 2: T3 chain 2
# modifications: here or on the partner: Alexa fluor 488 label (residues not stated)
# B2: Methanothermobacter thermautotrophicus glutamyl-tRNA(Gln) amidotransferase GatDE, His6-tagged (complex)
# chain 1: T3 chain 1
# chain 2: T3 chain 2
# B3: Methanothermobacter thermautotrophicus non-discriminating glutamyl-tRNA synthetase, O26157 1-553 (enzyme)
# chain: T1 chain
# How the values were obtained:
# [1] = biological target: T1, Alexa fluor 488-labeled M. …; assay: fluorescence polarisation; settings: remark: other sources report otherwise
# [2] = biological target: T2, Methanothermobacter thermautotrophicus …; assay: nitrocellulose filter-binding competition; settings: remark: other sources report otherwise
# SEC = biological target: the molecule itself; assay: SEC
# [3] = biological target: T3, Methanothermobacter thermautotrophicus …; assay: SEC; settings: remark: other sources report otherwise
binder,measurement,setting,value
B1,Kd,[1],100 nM
same,Ki,[2],33 nM
B2,stoichiometry N,SEC,2
B3,stoichiometry N (ND-GluRS monomers per GatDE homodimer),[3],2
